Test results reported in patent US8673306B2, “Compositions and methods of use for antibodies of dickkopf-1” (Novartis AG, priority 2006, dated 2014).
Marks after values point to notes of the source that are not given here.

Tests used:
[1] = molecular target: T1, DKK1/LRP6 binding on cell surface (Homo sapiens, UniProt O94907); assay: DKK1-GFP binding to LRP6 on HEK293T cell surface, fluorescence microscopy; assay type: cell-based; settings: HEK293T transfected with LRP6 and MESD
T1 construct: made in house; LRP6 and MESD transiently transfected into HEK293T
T1 sequence (O94907 32-266): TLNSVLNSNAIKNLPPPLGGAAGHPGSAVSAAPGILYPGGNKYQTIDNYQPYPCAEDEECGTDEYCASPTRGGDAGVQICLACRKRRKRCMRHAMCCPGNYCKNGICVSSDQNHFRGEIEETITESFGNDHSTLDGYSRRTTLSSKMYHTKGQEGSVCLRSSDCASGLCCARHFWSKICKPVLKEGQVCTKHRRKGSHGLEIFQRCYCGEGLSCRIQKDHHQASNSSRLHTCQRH
Procedure: However, upon co-transfection of LRP6 with a surface trafficking chaperone protein, MESD, GFP-tagged DKK1 can be detected on the cell surface, illustrating the specific nature of the DKK1/LRP6 interaction.
The ability of MOR04910 to inhibit DKK1/LRP6 binding on cell surface is measured by fluorescence microscopy. HEK293T cells are either mock transfected and transiently transfected with plasmids encoding LRP6 and MESD. Cells are incubated with DKK1-GFP conditioned medium together with anti-lysozyme FAb or anti-DKK1 FAb MOR04910 for 1 hour at 37° C., and examined by fluorescence microscopy. GFP fluorescence reflects DKK1-GFP binding to overexpressed LRP6 on the plasma membrane.

[2] = Fab stability and aggregation (size exclusion chromatography); assay type: physicochemical; settings: Fab after purification
[3] = molecular target: T2, human recombinant, biotinylated DKK1 (Homo sapiens, UniProt O94907); assay: ELISA binding of matured Fabs in presence of 50% human serum; settings: Fab 1 μg/ml
T2 sequence (O94907 32-266): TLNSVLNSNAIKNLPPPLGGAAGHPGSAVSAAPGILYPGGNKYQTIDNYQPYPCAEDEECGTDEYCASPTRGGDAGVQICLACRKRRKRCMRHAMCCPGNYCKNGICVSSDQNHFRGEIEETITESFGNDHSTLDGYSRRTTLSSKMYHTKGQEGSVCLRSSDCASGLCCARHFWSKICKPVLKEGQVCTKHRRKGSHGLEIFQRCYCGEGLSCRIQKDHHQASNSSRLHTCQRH
Procedure: Binding specificity of the matured Fabs in the presence of 50% human serum (HS) is determined. Serial dilutions of human recombinant, biotinylated DKK1 in TBS are Coated onto Neutravidin microtiter plates for 2 h at room temperature, from 8 ng DKK1 per well to a concentration of 125 ng DKK1 per well. After coating of the antigen, wells are blocked with TBS/0.05% Tween (TBS-T) supplemented with 1% BSA for 1 h at room temperature. Purified Fabs described above are diluted either in TBS/4% BSA or TBS/50% HS at a final concentration of 1 μg/ml, added to the coated and blocked wells and the plates are incubated for 1 h at room temperature. For detection, an anti-FLAG alkaline phosphatase (AP)-conjugated antibody (1:5000 dilution in TBST) and the fluorogenic substrate AttoPhos (Roche) are used. After each incubation, the wells of the microtiter plates are washed with TBST five times, except after the final incubation step with the labeled secondary antibody when wells are washed three times.
The fluorescence is measured in a TECAN Spectrafluor plate reader. Table 8 summarizes the binding activity of the optimized anti-DKK1 Fabs in presence of 50% human serum compared to binding activity in 4% BSA, which ranges from 83% to 100%. The median value is found to be 93%, thus the anti-DKK1 Fabs are found to fully bind to target in the presence of human serum.

Row | Molecule | Size exclusion chromatography [2] | Binding activity w/50% Human serum vs 4% BSA (%) [3] | further results
1 | MOR04910: affinity-optimized Fab from MOR04461; VH SEQ ID NO: 11, VL SEQ ID NO: 30; also used as MOR4910 IgG (antibody, listed as Homo sapiens, V domains shown) VH: QVQLVESGGGLVQPGGSLRLSCAASGFTFSSYWMSWVRQAPGKGLEWVSGISYSGSNTHYADSVKGRFTISRDNSKNTLYLQMNSLRAEDTAVYYCARMGIDLDYWGQGTLVTVSS VL: DIALTQPASVSGSPGQSITISCTGTSSDVGGFNYVSWYQQHPGKAPKLMIHDGSNRPSGVSNRFSGSKSGNTASLTISGLQAEDEADYYCQSWDVSPITAVFGGGTKLTVLGQ | – | – | inhibition of DKK1/LRP6 binding on cell surface [1]: specifically blocks this interaction
2 | MOR04456: parental HuCAL GOLD anti-DKK1 Fab; VH SEQ ID NO: 4, VL SEQ ID NO: 23 (antibody, listed as Homo sapiens, V domains shown) VH: QVQLVESGGGLVQPGGSLRLSCAASGFTFNNYGMTWVRQAPGKGLEWVSGISGSGSYTYYADSVKGRFTISRDNSKNTLYLQMNSLRAEDTAVYYCARTIYMDYWGQGTLVTVSS VL: DIVLTQSPATLSLSPGERATLSCRASQNLFSPYLAWYQQKPGQAPRLLIYGASNRATGVPARFSGSGSGTDFTLTISSLEPEDFATYYCQQYGDEPITFGQGTKVEIKRT | # (monomeric portion >90%) | – | –
3 | MOR04461: parental HuCAL GOLD anti-DKK1 Fab; VH SEQ ID NO: 5, VL SEQ ID NO: 24 (antibody, listed as Homo sapiens, V domains shown) VH: QVQLVESGGGLVQPGGSLRLSCAASGFTFSSYWMSWVRQAPGKGLEWVSGISYSGSNTHYADSVKGRFTISRDNSKNTLYLQMNSLRAEDTAVYYCARMGIDLDYWGQGTLVTVSS VL: DIALTQPASVSGSPGQSITISCTGTSSDVGGFNYVSWYQQHPGKAPKLMIHDGSNRPSGVSNRFSGSKSGNTASLTISGLQAEDEADYYCSTWDMTVDFVFGGGTKLTVLGQ | # (monomeric portion >90%) | – | –
4 | MOR04455: parental HuCAL GOLD anti-DKK1 Fab; VH SEQ ID NO: 3, VL SEQ ID NO: 22 (antibody, listed as Homo sapiens, V domains shown) VH: QVQLVESGGGLVQPGGSLRLSCAASGFTFSSYGMSWVRQAPGKGLEWVSGISGSGSYTYYADSVKGRFTISRDNSKNTLYLQMNSLRAEDTAVYYCARHYMDHWGQGTLVTVSS VL: DIQMTQSPSSLSASVGDRVTITCRASQDISNYLHWYQQKPGKAPKLLIYGASNLQSGVPSRFSGSGSGTDFTLTISSLQPEDFAVYYCQQYDSIPMTFGQGTKVEIKRT | # (monomeric portion >90%) | – | –
5 | MOR04470: parental HuCAL GOLD anti-DKK1 Fab; VH SEQ ID NO: 6, VL SEQ ID NO: 25 (antibody, listed as Homo sapiens, V domains shown) VH: QVQLVESGGGLVQPGGSLRLSCAASGFTFSSYWMSWVRQAPGKGLEWVSVISSDSSSTYYADSVKGRFTISRDNSKNTLYLQMNSLRAEDTAVYYCARHGIDFDHWGQGTLVTVSS VL: DIALTQPASVSGSPGQSITISCTGTSSDLGGYNYVSWYQQHPGKAPKLMIYDVNNRPSGVSNRFSGSKSGNTASLTISGLQAEDEADYYCQSYASGNTKVVFGGGTKLTVLGQ | # (monomeric portion >90%) | – | –
6 | MOR04516: parental HuCAL GOLD anti-DKK1 Fab; VH SEQ ID NO: 7, VL SEQ ID NO: 26 (antibody, listed as Homo sapiens, V domains shown) VH: QVQLVQSGAEVKKPGESLKISCKGSGYSFTNYYIGWVRQMPGKGLEWMGIIYPTDSYTNYSPSFQGQVTISADKSISTAYLQWSSLKASDTAMYYCARGIPFRMRGFDYWGQGTLVTVSS VL: DIVLTQPPSVSGAPGQRVTISCSGSSSNIGSSFVNWYQQLPGTAPKLLIGNNSNRPSGVPDRFSGSKSGTSASLAITGLQSEDEADYYCASFDMGSPNVVFGGGTKLTVLGQ | # (monomeric portion >90%) | – | –
7 | MOR04454: parental HuCAL GOLD anti-DKK1 Fab; VH SEQ ID NO: 2, VL SEQ ID NO: 21 (antibody, listed as Homo sapiens, V domains shown) VH: QVQLVESGGGLVQPGGSLRLSCAASGFTFSNYGLHWVRQAPGKGLEWVSSISYYGSSTYYADSVKGRFTISRDNSKNTLYLQMNSLRAEDTAVYYCARDGSHMDKPPGYVFAFWGQGTLVTVSS VL: DIQMTQSPSSLSASVGDRVTITCRASQGIKNYLNWYQQKPGKAPKLLIGAASSLQSGVPSRFSGSGSGTDFTLTISSLQPEDFATYYCLQYYGMPPTFGQGTKVEIKRT | # (monomeric portion >90%) | – | –
8 | MOR04921: affinity-optimized Fab from MOR04461; VH SEQ ID NO: 12, VL SEQ ID NO: 31 (antibody, listed as Homo sapiens, V domains shown) VH: QVQLVESGGGLVQPGGSLRLSCAASGFTFSSYWMSWVRQAPGKGLEWVSGISYSGSNTHYADSVKGRFTISRDNSKNTLYLQMNSLRAEDTAVYYCARMGIDLDYWGQGTLVTVSS VL: DIALTQPASVSGSPGQSITISCTGTSSDVGGFNYVSWYQQHPGKAPKLMIHDGSNRPSGVSNRFSGSKSGNTASLTISGLQAEDEADYYCQTWATSPLSSVFGGGTKLTVLGQ | – | 93* % | –
9 | MOR04914: affinity-optimized Fab from MOR04470; VH SEQ ID NO: 14, VL SEQ ID NO: 33 (antibody, listed as Homo sapiens, V domains shown) VH: QVQLVESGGGLVQPGGSLRLSCAASGFTFSSYWMSWVRQAPGKGLEWVSVISSDSSSTYYADSVKGRFTISRDNSKNTLYLQMNSLRAEDTAVYYCARHGIDFDHWGQGTLVTVSS VL: DIALTQPASVSGSPGQSITISCTGTSSDLGGYNYVSWYQQHPGKAPKLMIYDVNNRPSGVSNRFSGSKSGNTASLTISGLQAEDEADYYCQSYTYTPISPVFGGGTKLTVLGQ | – | 83* % | –
10 | MOR04907: affinity-optimized Fab from MOR04456; VH SEQ ID NO: 8, VL SEQ ID NO: 27 (antibody, listed as Homo sapiens, V domains shown) VH: QVQLVESGGGLVQPGGSLRLSCAASGFTFNNYGMTWVRQAPGKGLEWVSGISGSGSYTYYADSVKGRFTISRDNSKNTLYLQMNSLRAEDTAVYYCARTIYMDYWGQGTLVTVSS VL: DIVLTQSPATLSLSPGERATLSCRASQNLFSPYLAWYQQKPGQAPRLLIYGASNRATGVPARFSGSGSGTDFTLTISSLEPEDFAVYYCQQYLSLPTTFGQGTKVEIKRT | – | >83* % | –
11 | MOR04954: affinity-optimized Fab from MOR04470; VH SEQ ID NO: 18, VL SEQ ID NO: 37 (antibody, listed as Homo sapiens, V domains shown) VH: QVQLVESGGGLVQPGGSLRLSCAASGFTFSSYWMSWVRQAPGKGLEWVSVIEHKDKGGTTYYAASVKGRFTISRDNSKNTLYLQMNSLRAEDTAVYYCARHGIDFDHWGQGTLVTVSS VL: DIALTQPASVSGSPGQSITISCTGTSSDLGGYNYVSWYQQHPGKAPKLMIYDVNNRPSGVSNRFSGSKSGNTASLTISGLQAEDEADYYCQSYASGNTKVVFGGGTKLTVLGQ | – | >83* % | –
